Results from article PMC4211652 (Biochemistry, 2014).
No end group written: not given here.

T1: S100B (rat), Ca2+-loaded (rat, UniProt P04631 1-92)
T1 sequence: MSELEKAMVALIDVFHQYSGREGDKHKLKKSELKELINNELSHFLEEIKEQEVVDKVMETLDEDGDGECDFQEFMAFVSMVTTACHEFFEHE


Key:
S100B (rat), Ca2+-loaded = molecular target: T1, S100B (rat), Ca2+-loaded; test: fluorescence polarisation
crystal structure = molecular target: the molecule itself; test: crystal structure

Binder | binding result (S100B (rat), Ca2+-loaded) | binding result (crystal structure)
TRTKIDWNKILS (also: TAMRA label, position not given here) [TAMRA-labeled peptide TRTK12] | binds | –
Ca2+-bound S100B (bovine) covalently modified at Cys84 by SC124 (natural protein, Cys84 covalently bound to the adduct of SC124 (disulfiram)) MSELEKAVVALIDVFHQYSGREGDKHKLKKSELKELINNELSHFLEEIKEQEVVDKVMETLDSDGDGECDFQEFMAFVAMITTACHEFFEHE | – | binds
Ca2+-bound S100B (bovine) covalently modified at Cys84 by SC1982 (natural protein, Cys84 covalently bound to SC1982 (Rubescensin A) by Michael addition) MSELEKAVVALIDVFHQYSGREGDKHKLKKSELKELINNELSHFLEEIKEQEVVDKVMETLDSDGDGECDFQEFMAFVAMITTACHEFFEHE | – | binds
Ca2+-bound S100B (bovine) covalently modified at Cys84 by SBi4434 (natural protein, Cys84 covalently bound to SBi4434 (2,3-bis[(2-hydroxyethyl)thio]-1,4-naphthoquinone), the thiol replacing one thioglycol moiety) MSELEKAVVALIDVFHQYSGREGDKHKLKKSELKELINNELSHFLEEIKEQEVVDKVMETLDSDGDGECDFQEFMAFVAMITTACHEFFEHE | – | binds
Ca2+-bound S100B (bovine) covalently modified at Cys84 by SC1475 (natural protein, Cys84 covalently bound to SC1475 (3,4-dimethoxydalbergione)) MSELEKAVVALIDVFHQYSGREGDKHKLKKSELKELINNELSHFLEEIKEQEVVDKVMETLDSDGDGECDFQEFMAFVAMITTACHEFFEHE | – | binds
Ca2+-bound S100B (bovine) covalently modified at Cys84 by SBi4172 (natural protein, Cys84 covalently bound to SBi4172 (chelerythrine); the compound could be modelled in chain B only) MSELEKAVVALIDVFHQYSGREGDKHKLKKSELKELINNELSHFLEEIKEQEVVDKVMETLDSDGDGECDFQEFMAFVAMITTACHEFFEHE | – | binds
